Test results reported in IntAct's records for PubMed 26258632.

B1: Mitotic spindle assembly checkpoint protein MAD1 (Homo sapiens), Q9Y6D9 (parent)
chain: MEDLGENTMVLSTLRSLNNFISQRVEGGSGLDISTSAPGSLQMQYQQSMQLEERAEQIRSKSHLIQVEREKMQMELSHKRARVELERAASTSARNYEREVDRNQELLTRIRQLQEREAGAEEKMQEQLERNRQCQQNLDAASKRLREKEDSLAQAGETINALKGRISELQWSVMDQEMRVKRLESEKQELQEQLDLQHKKCQEANQKIQELQASQEARADHEQQIKDLEQKLSLQEQDAAIVKNMKSELVRLPRLERELKQLREESAHLREMRETNGLLQEELEGLQRKLGRQEKMQETLVGLELENERLLAKLQSWERLDQTMGLSIRTPEDLSRFVVELQQRELALKDKNSAVTSSARGLEKARQQLQEELRQVSGQLLEERKKRETHEALARRLQKRVLLLTKERDGMRAILGSYDSELTPAEYSPQLTRRMREAEDMVQKVHSHSAEMEAQLSQALEELGGQKQRADMLEMELKMLKSQSSSAEQSFLFSREEADTLRLKVEELEGERSRLEEEKRMLEAQLERRALQGDYDQSRTKVLHMSLNPTSVARQRLREDHSQLQAECERLRGLLRAMERGGTVPADLEAAAASLPSSKEVAELKKQVESAELKNQRLKEVFQTKIQEFRKACYTLTGYQIDITTENQYRLTSLYAEHPGDCLIFKATSPSGSKMQLLETEFSHTVGELIEVHLRRQDSIPAFLSSLTLELFSRQTVA

Variants of: B1
Details: with cenpe_human CENPE

effect of a mutation on the interaction	Variant
disrupting interaction strength	L17A;N18A;N19A;F20A;I21A

Variants of: B1
Details: with cenpe_human CENPE
Remark: another data set of the same source

effect of a mutation on the interaction	Variant
decreasing interaction strength	L17A;N18A;N19A;F20A;I21A
